From PMC3762362

Key:
[1] = biological target: Surface-tethered actin filaments (10% AF488 labeled, 1% biotinylated) (rabbit) (UniProt P68135); experiment: colocalization single molecule spectroscopy (CoSMoS, TIRF); biotinylated AF488-actin filaments tethered to the slide; Arp2/3-SNAP649 and 1 μM actin in solution, no VCA; TIRF buffer; rate constant per filament subunit
[2] = biological target: Surface-tethered actin filaments (10% AF488 labeled, 1% biotinylated) (rabbit) (UniProt P68135); experiment: colocalization single molecule spectroscopy (CoSMoS, TIRF); biotinylated AF488-actin filaments tethered to the slide; 5 nM Arp2/3-SNAP649, 5 nM Cy3-diVCA construct and 1 μM actin (10% AF488 labeled) in solution; TIRF buffer; time resolution 0.15 s
[3] = biological target: SNAP-tagged S. cerevisiae Arp2/3 complex labeled with Dy649 (Arp2/3-SNAP649) (S. cerevisiae) (UniProt P32381)
[4] = biological target: SNAP-tagged S. cerevisiae Arp2/3 complex labeled with Dy649 and biotin (Arp2/3-SNAP649-biotin) (S. cerevisiae) (UniProt P32381); experiment: colocalization single molecule spectroscopy (CoSMoS, TIRF); Arp2/3-SNAP649-biotin tethered to the slide through streptavidin; 0.1–2 nM Cy3-diVCA construct and 1 μM actin (10% AF488 labeled) in solution; periods with no filament colocalized; TIRF buffer (50 mM KCl, 1 mM MgCl2, 1 mM EGTA, 10 mM imidazole pH 7.2)
[5] = biological target: SNAP-tagged S. cerevisiae Arp2/3 complex labeled with Dy649 (Arp2/3-SNAP649) (S. cerevisiae) (UniProt P32381); experiment: colocalization single molecule spectroscopy (CoSMoS, TIRF); biotinylated AF488-actin filaments tethered to the slide; 5 nM Arp2/3-SNAP649, 5 nM Cy3-diVCA construct and 1 μM actin (10% AF488 labeled) in solution; TIRF buffer; time resolution 0.15 s
[6] = biological target: SNAP-tagged S. cerevisiae Arp2/3 complex labeled with Dy649 (Arp2/3-SNAP649) (S. cerevisiae) (UniProt P32381); remark: listed apart in the source
[7] = biological target: VCA-AF594 (N-WASP VCA 430–505, S430C, C431A, AlexaFluor 594 labeled) (human) (UniProt O00401); experiment: fluorescence polarisation; fluorescence anisotropy of 10 nM VCA-AF594 with increasing non-polymerizable Drosophila 5C actin or yeast Arp2/3 complex; single site binding isotherm
VCA-AF594 (N-WASP VCA 430–505, S430C, C431A, AlexaFluor 594 labeled) (human), sequence (O00401 430-505 S430C/C431A): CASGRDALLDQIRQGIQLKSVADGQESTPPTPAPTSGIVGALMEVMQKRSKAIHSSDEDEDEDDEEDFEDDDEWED

[8] = biological target: Endogenous bovine Arp2/3 complex (bovine (endogenous in calf thymus)) (UniProt A7MB62); experiment: fluorescence polarisation; fluorescence anisotropy competition: VVCA-A462C-AF594 reporter with 200 nM bovine Arp2/3 complex and increasing unlabeled GST-VCA, GST-VVCA or GST-VCA-C*; fit to a competition-binding isotherm
[9] = biological target: VVCA-A462C-AF594 (N-WASP 393–505, C431A, A462C, AlexaFluor 594 labeled) (human) (UniProt O00401); experiment: fluorescence polarisation; fluorescence anisotropy, direct binding of 20 nM VVCA-A462C-AF594 to bovine Arp2/3 complex; no actin; 10 min incubation
VVCA-A462C-AF594 (N-WASP 393–505, C431A, A462C, AlexaFluor 594 labeled) (human), sequence (O00401 393-505 C431A/A462C): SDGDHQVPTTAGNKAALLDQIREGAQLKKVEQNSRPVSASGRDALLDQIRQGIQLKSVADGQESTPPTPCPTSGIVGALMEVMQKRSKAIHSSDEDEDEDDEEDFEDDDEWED

Cy3-diVCA-A* (Δ486–488), sequence (O00401 other isoform, or with tags, fused parts or gaps mutant): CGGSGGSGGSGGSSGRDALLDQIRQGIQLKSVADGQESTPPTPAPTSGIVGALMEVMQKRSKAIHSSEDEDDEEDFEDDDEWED
Cy3-diVCA wild-type (N-WASP VCA covalently dimerized with a Cy3 bis-maleimide), sequence (O00401 other isoform, or with tags, fused parts or gaps): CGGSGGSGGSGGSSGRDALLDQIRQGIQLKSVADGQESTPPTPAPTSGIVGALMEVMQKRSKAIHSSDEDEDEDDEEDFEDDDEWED

Substance	kB, second order rate constant for branch formation (per mother filament subunit), single-molecule TIRF [3] [M⁻¹ s⁻¹]	kon [4] [M⁻¹ s⁻¹]	τV1, first characteristic lifetime of diVCA on isolated Arp2/3 complexes [4] [s]	τV2, second characteristic lifetime of diVCA on isolated Arp2/3 complexes [4] [s]	fAV, fraction of Arp2/3 complexes that bind filament sides coincident with diVCA [5]	kV*, rate constant for diVCA release from the nascent branch (filament-bound Arp2/3 complex) [5] [s⁻¹]	τV*, mean lifetime of diVCA on nascent branches (filament-bound Arp2/3 complex) [5] [s]	fold stimulation of Arp2/3 complex-dependent nucleation in bulk pyrene-actin assays (barbed ends at the midpoint; 25 nM diVCA construct, 10 nM Arp2/3-SNAP) [6] [fold]	further results
SNAP-tagged S. cerevisiae Arp2/3 complex labeled with Dy649 (Arp2/3-SNAP649) (from UniProt P32381 1-391; P47117 1-449; Q05933 1-178)	–	–	–	–	–	–	–	–	kon [1]: 20000 M⁻¹ s⁻¹; kA+ (binding to filament sides, per filament subunit) with diVCA A* present [2]: 8000 M⁻¹ s⁻¹; kA+ (binding to filament sides, per filament subunit) with diVCA C* present [2]: 20000 M⁻¹ s⁻¹; kA+ (binding to filament sides, per filament subunit) with diVCA V* present [2]: 13000 M⁻¹ s⁻¹; kA+ (binding to filament sides, per filament subunit) with diVCA w.t. present [2]: 21000 M⁻¹ s⁻¹
Cy3-diVCA wild-type (N-WASP VCA covalently dimerized with a Cy3 bis-maleimide) (from UniProt O00401 432-505) (domain or fragment)	160	1.6e+08	8	61	0.83	0.04	0.7	2	Kd [4]: < 2 nM; percent of tethered Arp2/3 complexes observed to bind diVCA [4]: > 80%
S. cerevisiae Arp2/3 complex purified from commercial baker's yeast (from UniProt P32381 1-391; P47117 1-449; Q05933 1-178)	–	–	–	–	–	–	–	–	Kd [7]: 65 nM
GST-VCA-C* (GST fusion of N-WASP VCA with the C* mutation) (from UniProt O00401 432-505) (domain or fragment)	–	–	–	–	–	–	–	–	fold weaker affinity than GST-VCA [8]: 4 fold
Cy3-diVCA-A* (Δ486–488) (from UniProt O00401 432-505) (domain or fragment)	100	1.6e+08	40	250	0.7	0.022	0.7	1.4	–
Endogenous bovine Arp2/3 complex (from UniProt A7MB62 1-394; P61157 1-418)	–	–	–	–	–	–	–	–	Kd [9]: 150 nM
Cy3-diVCA-V* (D435S/A436D) (from UniProt O00401 432-505) (domain or fragment)	320	7e+07	3.6	56	0.7	0.08	0.54	10	–
Cy3-diVCA-C* (I467A) (from UniProt O00401 432-505) (domain or fragment)	200	6e+07	2.4	14	0.59	0.05	0.37	6	–
